From the domain aggregation screens of Martell et al. (2025)

experiment: soluble fraction after stress (log2 fold change); higher = more stays soluble; pooled small domains, quantitative proteomics; conditions: stress: pH 4
In short: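 Values are log2 fold changes, and higher ones mean more of the domain stayed soluble. Each fold change reflects the soluble amount of a domain after acid stress and is taken as a measure of aggregation propensity. The stress was pH 4, applied to pooled custom libraries of small protein domains analysed by high-throughput quantitative proteomics.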

| Sequence | soluble fraction (log2) |
| --- | --- |
| HMEKKDTYTVKNGDSLWGIARTELGDGGRFREIYTLNADTIEAEAKKRGRSSSSEGHWIYPGSVLRLP | -0.325 |
| HMEKKGTVVIATVKGDIHDIGKNIVKVLLENYGFDVIDLGKDVPPEAVVEAVQQSGARLVGLSALM | -0.577 |
| HMEKKSKLVLAVLQGSDSDNTIRNLNERGFMVTVLSSTGGFLKKKSTTVMIGVEEDRLEEALDVLQKYAG | -0.617 |
| HMEKKTILIPPVITVRALAEISQIPVNRLLQELIKNGVFTSINEKIDFDTAVIIGADLNLDIQLL | -0.984 |
| HMEKLPRYILPGVPKVKSINISSALDGLVQDYSREFNISQKDIFQIALVEFFKKYGYHNAVKAVL | 0.0067 |
| HMEKLSMLKIKELFRLAIEMNLSHRQIAQSLNVSHTVVNRYLKRFKKSNLSYETLLKLGDKEIISALYEH | -0.0551 |
| HMEKPAQDVLASHREWMGEMIKAEHMTAKQVWRLLRERADIGVSYPTVKRYLRAHFQFGGPS | 0.00611 |
| HMEKRLDYTFGLNKEQLLYLTKSIKDGDFYNVSFIDGTEKKLNRVGSTKEVHKYVNFLMTNDGIVKK | 0.0133 |
| HMEKSLKELAQGVGQKVLTSGRPYHFDPMSAMERRVVHMTLMEMDGLRTESEGEGRFRHVVVFPA | -0.208 |
| HMEKTEQMQVILDYIARYGEINNEKVQEILGVKRTRAYTILKQMVENGFVTTNGRGEEKKYYSIR | -0.33 |
| HMEKTIQIYDNIIIKDFAEKMEVSPSQVITKLIGLGVMANLNQPIDINSAVIVGKEFGFNVESM | -0.952 |
| HMEKVLPFEFERKFKTNHTAWDFFSNQAPPSYRKTVIHWILSAKQEITRISRLEKLIAASEQQKRI | -0.31 |
| HMEKYIVNQEEQGKRLDIYVVNKSSELTRTAVQRLIEQEHILVNGRKQKASYKVLEGDIITIERV | -0.649 |
| HMEKYTDDLEIAAEIARLETLMEGNGRVLIRPSGTEPLVRVMIEGNDIEQITKLAEDLAALLNKRF | -0.842 |
| HMELDFNSVYRQLNHEQKQAYQSIKSVLEQKISGSELDKKLKQAQQAFVAKFKENPNFEVPK | 0.22 |
| HMELDIGKKAIVIEKIDPEAGTGRVRIEGVDWGAKTADSSVIEKGETVVVKAKGAAFVTVAK | 0.0671 |
| HMELEAFPNPTDMFLSFTTKEKTPLAIYDINGKQVLYVEQITSSSKINVSKLSEGVYFAKTNQGTVKWVK | -0.46 |
| HMELEQLKSQLTGFLKANREQIFTAQNLADGLRMTDSQGYKQVVNALNASVRDGDVIDIKNGYQYNKN | -0.0153 |
| HMELEWENYSLAGEIKTTVMLYQNRRNGLPEEAKQKADALMKQLKQAVIENDAQKVEKIDDALTALLFE | -0.249 |

| Sequence | soluble fraction (log2) |
| --- | --- |
| HMELGYTPNNLRSVRAKYGLTQKQVAEITGLKTWHPVNRWEAPVEAAYHADMPHTKWLKLLDELSSR | -0.0144 |
| HMELKYIDYDEALVVYAKTVTASGGGLSGVKDEGGIRKVLDFVQNDLYYPTFVDKLTYLVFGL | -0.155 |
| HMELLPAERRQQLVDWFKSNQAGTSQDLARMFGISVSTIRRDLDLLASEGLVKRTHGGAVSIR | 0.2 |
| HMELLPFEFARANRVLLRVNESDLVVSPDANHSAVTEILRLNNNIETIKSVDAEAFDKILSSIYSG | -2 |
| HMELLSVPSRLGTFFLGGEAGHIIRLYLPGDPTPRIAEHETPVLSEARRQLLEYLAGRRTAFSFPL | -0.223 |
| HMELNEIEFENLKESIIIHLEKESLSPHELVKHIQTIHPDKVTAVIQWMLENGFIKTDAGGQLTLVSK | -0.485 |
| HMELNELTSRELMVAEQVARGASNREISEALSISERTVKAHLSAAFEKLGVRDRVQLALAMNNIPT | -0.886 |
| HMELNKNDLKIIKNISHIYPYFTPVKILQLILSKKFKTIDYNKILKSTSILTTDRSHLYYILNN | 0.22 |
| HMELPSDEHLDDISHLARIGHKKGLQEKIIQLEQQGLASAEFIQQLKTLTNNFQFEKIIQWVDSEL | -0.848 |
| HMELRIREILESKDIKVSSLAETVGITRANMSNIVNGKSTPSLETLEKIANALGVDITELFA | -0.573 |
| HMELSAEGWVDGTGVRMRASASTDSEVVRVTEDGESLDITGVSGTWYRVTAGGVSGYIRSDYVSLEEP | -0.186 |
| HMELSAQEIGRRLRIARENADIRQDDAAQVIGMSRPTLVSIEKGVRRVRIQEIQMLARHYGVSVNALLR | -0.2 |
| HMELSVTDRTRQIRHILKEKGRVEFTSLFEELTKPYVIVTFLSVLEMSKNNELMITQDKTFGSITLEMKG | -0.383 |
| HMELVIGESLAVELLRPGKEDGQALGYLPDGSMVVVNNGRAFVGKRVTAEIIGVIRSAGGKMVFSNLLGE | -2 |
| HMEMDITIQMRTLVEELNRASDAYYNGRGELMTDYEWDAKFDQLKQLESQSGVVLPDSPTHRV | -1.51 |
| HMEMELNHVARRAGRLSGFLKGELRLSTGLMNRLKWSNAILVNGKPARTNAQVEPGDRITVILD | 0.189 |
| HMEMLQENIRNLRKAKGWSQEELAIKLNVVRQTVSKWEKGLSVPDSQMLIRIADELDTTVAILLG | 0.253 |
| HMEMLQRFIFLENVSSTQVESAIKELHPNLNLKRVKLSFPGADTVLLKGPKQDLELAEELIRHLDRSE | -0.609 |
| HMEMPGGVMRTLSTIAYNQPVLQSKLVKVRGPRAYEDVHILRDMGLVSARSVGQTVELSTTPKFAEQF | 0.102 |
